B1: TPR t1 (parent)
chain: GACCAAUCUGCCCUCAGAGCUCGAGAACAUCUUCGGAUGCAGAGGAGGCAGGCUUCGGUGGCGCGAUAGCGCCAACGUCCUCAACCUCCAAUGCAUCCCACCACAUGAUGAUGCCUGAAGAGCCUUGGUUUUUUG

Variants of: B1
Assay: polymerase ribozyme fitness, log enrichment relative to wild type (log ratio); higher = more active; in vitro selection for triplet polymerase activity
Summary of the method: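 Mutant libraries for each subunit of a heterodimeric triplet polymerase ribozyme were made by PCR and then transcribed. Each library underwent one round of in vitro selection in triplicate: annealing with a biotinylated primer, the partner subunit and triplets, frozen incubation at −7 °C, gel excision of extended constructs, streptavidin-bead capture and RT-PCR. Input and output libraries were Illumina-sequenced, and only genotypes with ≥10 input reads and ≥1 read per output were kept. Fitness is the logarithm, base 2, of genotype enrichment over wild-type enrichment, computed from inverse-variance-weighted replicate averages.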

Variant | polymerase ribozyme fitness (log ratio)
GACCAAUCUGCCCUCAGAGCUCGAGAACAUCUUCGGAUGCAGAGGAGGCAGGCUUCGGUGGCGCGAUAGCGCCAACGUCCUCAACCUCCAUUGCAUCCCACCACAUGAUGAUGCCUGAAGAGCCUUGAUUUUUUG [A91U G128A] | -3.34
GACCAAUCUGCCCUCAGAGCUCGAGAACAUCUUCGGAUGCAGAGGAGGCAGGCUUCGGUGGCGCGAUAGCGCCAACGUCCUCAACCUCCAAAGCAUCCCACCACAUGAUGAUGCCUGAAAAGCCUUGGUUUUUUG [U92A G120A] | -2.17
GACCAAUCUGCCCUCAGAGCUCGAGAACAUCUUCGGAUGCAGAGGAGGCAGGCUUCGGUGGCGCGAUAGCGCCAACGUCCUCAACCUCCAAAGCAUCCCACCACAUGAUGAUGCCUGAAUAGCCUUGGUUUUUUG [U92A G120U] | -2.93
GACCAAUCUGCCCUCAGAGCUCGAGAACAUCUUCGGAUGCAGAGGAGGCAGGCUUCGGUGGCGCGAUAGCGCCAACGUCCUCAACCUCCACUGCAUCCCACCACAUGAUGAUGCCUCAAGAGCCUUGGUUUUUUG [A91C G117C] | -1.71
GACCAAUCUGCCCUCAGAGCUCGAGAACAUCUUCGGAUGCAGAGGAGGCAGGCUUCGGUGGCGCGAUAGCGCCAACGUCCUCAACCUCCUAUGCAUCCCACCUCACGAUGAUGCCUGAAGAGCCUUGGUUUUUUG [A90U A103U U106C] | -5.93
GACCAAUCUGCCCUCAGAGCUCGAGAACAUCUUCGGAUGCAGAGGAGGCAGGCUUCGGUGGCGCGAUAGCGCCAACGUCCUCAACCUCCAAAGCAUCCCACCACAUGAUGACGCCUGAAGCGCCUUGGUUUUUUG [U92A U112C A121C] | -0.365
GACCAAUCUGCCCUCAGAGCUCGAGAACAUCUUCGGAUGCAGAGGAGGCAGGCUUCGGUGGCGCGAUAGCGCCAACGUCCUCAACCUCCAAAGCAUCCCACCACAUGAUGAUGCUUGAAGAGCCUUGGUUUUUUG [U92A C115U] | -3.78
GACCAAUCUGCCCUCAGAGCUCGAGAACAUCUUCGGAUGCAGAGGAGGCAGGCUUCGGUGGCGCGAUAGCGCCAACGUCCUCAACCUCCACUGCAUCCCACCACAUGAUGCUGCCUGAAGAGCCUUGGUUUUUUG [A91C A111C] | -2.03
GACCAAUCUGCCCUCAGAGCUCGAGAACAUCUUCGGAUGCAGAGGAGGCAGGCUUCGGUGGCGCGAUAGCGCCAACGUCCUCAACCUCCAUUGCAUCCCACCACAUGAUGAUGCCUGAAAAGCCUUGGUUUUUUG [A91U G120A] | -0.951
GACCAAUCUGCCCUCAGAGCUCGAGAACAUCUUCGGAUGCAGAGGAGGCAGGCUUCGGUGGCGCGAUAGCGCCAACGUCCUCAACCUCCAGUGCAUCCCACCAUAUGAUGAUGCCUGCAGAGGAUAGGUUUUUUG [A91G C104U A118C C123G C124A U126A] | -0.422
GACCAAUCUGCCCUCAGAGCUCGAGAACAUCUUCGGAUGCAGAGGAGGCAGGCUUCGGUGGCGCGAUAGCGCCAACGUCCUCAACCUCCAGUGCAUCCCACCACAUGAUGAUGCUUGAAGAGCCUUGGUUUUUUG [A91G C115U] | -1.36
GACCAAUCUGCCCUCAGAGCUCGAGAACAUCUUCGGAUGCAGAGGAGGCAGGCUUCGGUGGCGCGAUAGCGCCAACGUCCUCAACCUCCUAUGCAUCCCUCCACAUGAUGAUGCCUGAAGAGCCUUGGUUUUUUG [A90U A100U] | -2.77
GACCAAUCUGCCCUCAGAGCUCGAGAACAUCUUCGGAUGCAGAGGAGGCAGGCUUCGGUGGCGCGAUAGCGCCAACGUCCUCAACCUCCAGUGCAUCUCACCACAUGAUGAUGCCUGAAGAGCCUUGGUUUUUUG [A91G C98U] | -1.4
GACCAAUCUGCCCUCAGAGCUCGAGAACAUCUUCGGAUGCAGAGGAGGCAGGCUUCGGUGGCGCGAUAGCGCCAACGUCCUCAACCUCCGAUGCAUCCCACCACAUGAUGAUGCCUGAAGAGCCUAGGUUUUUUG [A90G U126A] | -1.39
GACCAAUCUGCCCUCAGAGCUCGAGAACAUCUUCGGAUGCAGAGGAGGCAGGCUUCGGUGGCGCGAUAGCGCCAACGUCCUCAACCUCCAAAGCAUCCCACCACAUGAUGGUGCCUGAAGAGCCUUGGCUUCUUG [U92A A111G U129C U132C] | -3.54
GACCAAUCUGCCCUCAGAGCUCGAGAACAUCUUCGGAUGCAGAGGAGGCAGGCUUCGGUGGCGCGAUAGCGCCAACGUCCUCAACCUCCAAAGCAUCCCACCACAUGAUGAUGCCUGAAGAGCCUUGGAUUUUUG [U92A U129A] | -4.29
GACCAAUCUGCCCUCAGAGCUCGAGAACAUCUUCGGAUGCAGAGGAGGCAGGCUUCGGUGGCGCGAUAGCGCCAACGUCCUCAACCUCCAAAGCAUCCCACCACAUGAUGAUGCCUGAAGAGCCUUGGGUUUUUG [U92A U129G] | -4.28
GACCAAUCUGCCCUCAGAGCUCGAGAACAUCUUCGGAUGCAGAGGAGGCAGGCUUCGGUGGCGCGAUAGCGCCAACGUCCUCAACCUCCUAUGCAUCCCACCACAGGAUGAUGCCUGAAGAGCCUUGGUUUUUUG [A90U U106G] | -4.63
GACCAAUCUGCCCUCAGAGCUCGAGAACAUCUUCGGAUGCAGAGGAGGCAGGCUUCGGUGGCGCGAUAGCGCCAACGUCCUCAACCUCCUAUGCAUCCCACCACAAGAUGAUGCCUGAAGAGCCUUGGUUUUUUG [A90U U106A] | -1.76
GACCAAUCUGCCCUCAGAGCUCGAGAACAUCUUCGGAUGCAGAGGAGGCAGGCUUCGGUGGCGCGAUAGCGCCAACGUCCUCAACCUCCACUGCAUCCCACCCCAUGAUGAUGCCUGAAGAGCCUUGGUUUUUUG [A91C A103C] | -7.08
GACCAAUCUGCCCUCAGAGCUCGAGAACAUCUUCGGAUGCAGAGGAGGCAGGCUUCGGUGGCGCGAUAGCGCCAACGUCCUCAACCUCCAUUGCAUCCCACCACAUGAUGAUGCCUGAAGAGGCUUGGUUUUUUG [A91U C123G] | 0.354

— the RNAGym collection of RNA variant scans (doi:10.1073/pnas.2313332121)
